These results are taken from patent US20250051413A1 (ASKGENE PHARMA, published 2025).

In this assay the target is human IL-12 receptor (b1 and b2 chain) (human, UniProt P42701 24-662; Q99665 24-862). Briefly: cell-based or functional assay.
human IL-12 receptor (b1 and b2 chain), sequence (Q99665 24-862, chain 2 of 2, other chains not shown): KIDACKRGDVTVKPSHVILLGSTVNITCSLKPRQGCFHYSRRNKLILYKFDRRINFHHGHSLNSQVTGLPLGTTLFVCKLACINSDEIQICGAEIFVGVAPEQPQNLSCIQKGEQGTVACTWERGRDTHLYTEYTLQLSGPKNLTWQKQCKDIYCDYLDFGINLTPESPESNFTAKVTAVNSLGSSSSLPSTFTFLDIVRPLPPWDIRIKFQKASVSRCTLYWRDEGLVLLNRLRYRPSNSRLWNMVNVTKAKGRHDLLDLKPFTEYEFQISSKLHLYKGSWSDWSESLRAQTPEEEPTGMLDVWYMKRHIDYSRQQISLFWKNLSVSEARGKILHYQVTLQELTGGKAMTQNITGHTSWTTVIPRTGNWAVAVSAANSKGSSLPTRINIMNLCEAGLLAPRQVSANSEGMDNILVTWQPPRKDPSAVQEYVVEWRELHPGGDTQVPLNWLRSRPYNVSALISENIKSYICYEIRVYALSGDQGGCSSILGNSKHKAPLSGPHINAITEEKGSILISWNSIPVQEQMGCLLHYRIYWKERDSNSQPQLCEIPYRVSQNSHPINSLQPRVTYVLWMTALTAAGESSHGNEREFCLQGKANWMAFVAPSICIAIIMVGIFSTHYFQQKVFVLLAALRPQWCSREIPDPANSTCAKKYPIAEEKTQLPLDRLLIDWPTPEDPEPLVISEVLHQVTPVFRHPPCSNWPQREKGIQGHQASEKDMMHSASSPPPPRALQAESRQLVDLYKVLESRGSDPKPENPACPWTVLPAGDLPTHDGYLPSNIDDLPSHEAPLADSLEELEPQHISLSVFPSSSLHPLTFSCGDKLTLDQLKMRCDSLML

B1: ASKG129C (Fc fusion)
chain 1: QVQLVQSGVEVKKPGASVKVSCKASGYTFTNYYMYWVRQAPGQGLEWMGGINPSNGGTNFNEKFKNRVTLTTDSSTTTAYMELKSLQFDDTAVYYCARRDYRFDMGFDYWGQGTTVTVSSASTKGPSVFPLAPSSKSTSGGTAALGCLVKDYFPEPVTVSWNSGALTSGVHTFPAVLQSSGLYSLSSVVTVPSSSLGTQTYICNVNHKPSNTKVDKKAEPKSCDKTHTCPPCPAPEAAGAPSVFLFPPKPKDTLYITREPEVTCVVVDVSHEDPEVKFNWYVDGVEVHNAKTKPREEQYNSTYRVVSVLTVLHQDWLNGKEYKCKVSNKALPAPIEKTISKAKGQPREPQVYTLPPSREEMTKNQVSLTCLVKGFYPSDIAVEWESNGQPENNYKTTPPVLDSDGSFFLYSKLTVDKSRWQQGNVFSCSVMHEALHNHYTQKSLSLSPGGGGSGGGGSAAGGGGSGGGGSDIQMTQSPSSLSASVGDRVTITCRASQGISSWLAWYQQKPEKAPKSLIYAASSLQSGVPSRFSGSGSGTDFTLTISSLQPEDFATYYCQQYNIYPYTFGQGTKLEIKSGGGGSGGGGSGGGGSEVQLVQSGAEVKKPGESLKISCKGSGYSFTTYWLGWVRQMPGKGLDWIGIMSPVDSDIRYSPSFQGQVTMSVDKSITTAYLQWNSLKASDTAMYYCARRRPGQGYFDFWGQGTLVTVSS
chain 2: EVQLVESGGGLVQPGGSLRLSCAASGYTVSSYCMGWFRQAPGKGREGVSAIDSDGSVSYADSVKGRFTISKDNSKNTLYLQMNSLRAEDTAVYFCAADLCWVDQDQGEYNTWGQGTLVTVSSGSEPKSSDKTHTCPPCPAPEAAGGPSVFLFPPKPKDTLYITREPEVTCVVVDVSHEDPEVKFNWYVDGVEVHNAKTKPREEQYNSTYRVVSVLTVLHQDWLNGKEYKCKVSNKALPAPIEKTISKAKGQPREPQVYTLPPSREEMTKNQVSLTCLVKGFYPSDIAVEWESNGQPENNYKTTPPVLDSDGSFFLYSKLTVDKSRWQQGNVFSCSVMHEALHNHYTQKSLSLSPGGGGSGGGGSAAGGGGSGGGGSDIQMTQSPSSLSASVGDRVTITCRASQGISSWLAWYQQKPEKAPKSLIYAASSLQSGVPSRFSGSGSGTDFTLTISSLQPEDFATYYCQQYNIYPYTFGQGTKLEIKSGGGGSGGGGSGGGGSEVQLVQSGAEVKKPGESLKISCKGSGYSFTTYWLGWVRQMPGKGLDWIGIMSPVDSDIRYSPSFQGQVTMSVDKSITTAYLQWNSLKASDTAMYYCARRRPGQGYFDFWGQGTLVTVSS
For B1, the “EC50 of p-STAT4 induction in human PBMC, CD4+ T cells” value is 2.52 nM; the “EC50 of p-STAT4 induction in human PBMC, CD8+ T cells” value was 2.09 nM; the “EC50 of p-STAT4 induction in human PBMC, NK cells” value turned out to be 3.75 nM; the “fold decrease in cytokine releasing assay with human PBMC, activity relative to IL-12” value is about 1000 times.
